Measurements as given in patent publication US20170058297A1.
Residue numbers refer to the chain shown, from its start. Names and notes keep the numbering of the source.

Experiments:
[1] = target: wild-type Cre recombinase (P1 Bacteriophage) (UniProt P06956); test: cell-based or functional assay
[2] = target: Cre-A3 (P1 Bacteriophage) (UniProt P06956); test: cell-based or functional assay
[3] = target: Cre-B2 (P1 Bacteriophage) (UniProt P06956); test: cell-based or functional assay
[4] = target: Cre-B3 (P1 Bacteriophage) (UniProt P06956); test: cell-based or functional assay
Cre-B2 = target: T1, Cre-B2
T1 chain: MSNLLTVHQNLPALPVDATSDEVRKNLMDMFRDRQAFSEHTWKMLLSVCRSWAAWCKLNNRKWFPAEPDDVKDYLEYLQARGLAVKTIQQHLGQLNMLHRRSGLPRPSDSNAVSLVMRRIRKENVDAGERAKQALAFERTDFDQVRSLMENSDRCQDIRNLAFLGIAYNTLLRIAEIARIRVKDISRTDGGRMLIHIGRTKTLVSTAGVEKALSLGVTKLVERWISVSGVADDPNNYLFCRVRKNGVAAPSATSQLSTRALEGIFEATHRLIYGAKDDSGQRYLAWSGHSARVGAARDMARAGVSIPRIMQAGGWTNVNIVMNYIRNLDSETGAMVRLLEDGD

[5] = target: Cre-A2 (P1 Bacteriophage) (UniProt P06956); test: cell-based or functional assay
[6] = target: Cre-B1 (P1 Bacteriophage) (UniProt P06956); test: cell-based or functional assay
Cre-E123LE-R337E = target: T2, Cre-E123LE-R337E
T2 chain: T1 chain with D69E, K72R, E76L, E123L, R308E, R337E

Q: What does the source list for “wild-type Cre recombinase (from UniProt P06956 1-343) (enzyme)”?
A: RFP positive cells of 7000 sorted, Ai14 mouse ES reporter cells, promoter hbb + cmv, replicate 1 [1]: 3910 cells; RFP positive cells of 7000 sorted, Ai14 mouse ES reporter cells, promoter hbb + cmv, replicate 2 [1]: 4220 cells; RFP positive cells of 7000 sorted, Ai14 mouse ES reporter cells, promoter hbb + cmv, replicate 3 [1]: 4310 cells; RFP positive cells of 7000 sorted, Ai14 mouse ES reporter cells, promoter hbb + sp1, replicate 1 [1]: 3820 cells; RFP positive cells of 7000 sorted, Ai14 mouse ES reporter cells, promoter hbb + sp1, replicate 2 [1]: 3800 cells; RFP positive cells of 7000 sorted, Ai14 mouse ES reporter cells, promoter hbb + sp1, replicate 3 [1]: 4020 cells; RFP positive cells of 7000 sorted, Ai14 mouse ES reporter cells, promoter hbb, replicate 1 [1]: 372 cells; RFP positive cells of 7000 sorted, Ai14 mouse ES reporter cells, promoter hbb, replicate 2 [1]: 391 cells; RFP positive cells of 7000 sorted, Ai14 mouse ES reporter cells, promoter hbb, replicate 3 [1]: 408 cells

B1: Cre-A3 (protein)
chain: MSNLLTVHQNLPALPVDATSDEVRRNLMRMFELRRAFSEHTWKMLLSVCRSWAAWCKLNNRKWFPAEPEDVRDYLLYLQARGLAVKTIQQHLGQLNMLHRRSGLPRPSDSNAVSLVMRRIRKLNVDAGERAKQALAFERTDFDQVRSLMENSDRCQDIRNLAFLGIAYNTLLRIAEIARIRVKDISRTDGGRMLIHIGRTKTLVSTAGVEKALSLGVTKLVERWISVSGVADDPNNYLFCRVRKNGVAAPSATSQLSTRALEGIFEATHRLIYGAKDDSGQRYLAWSGHSARVGAARDMARAGVSIPEIMQAGGWTNVNIVMNYIRNLDSETGAMVELLEDGD
Q: What does the source list for B1?
A: RFP positive cells of 7000 sorted, Ai14 mouse ES reporter cells, promoter hbb + cmv, replicate 1 [2]: 0 cells; RFP positive cells of 7000 sorted, Ai14 mouse ES reporter cells, promoter hbb + cmv, replicate 2 [2]: 1 cells; RFP positive cells of 7000 sorted, Ai14 mouse ES reporter cells, promoter hbb + cmv, replicate 3 [2]: 1 cells; RFP positive cells of 7000 sorted, Ai14 mouse ES reporter cells, promoter hbb + sp1, replicate 1 [2]: 1 cells; RFP positive cells of 7000 sorted, Ai14 mouse ES reporter cells, promoter hbb + sp1, replicate 2 [2]: 0 cells; RFP positive cells of 7000 sorted, Ai14 mouse ES reporter cells, promoter hbb + sp1, replicate 3 [2]: 0 cells; RFP positive cells of 7000 sorted, Ai14 mouse ES reporter cells, promoter hbb, replicate 1 [2]: 0 cells; RFP positive cells of 7000 sorted, Ai14 mouse ES reporter cells, promoter hbb, replicate 2 [2]: 0 cells; RFP positive cells of 7000 sorted, Ai14 mouse ES reporter cells, promoter hbb, replicate 3 [2]: 1 cells; RFP positive cells of 7000 sorted, Ai14 mouse ES reporter cells, promoter hbb + cmv, replicate 1 [3]: 1600 cells; RFP positive cells of 7000 sorted, Ai14 mouse ES reporter cells, promoter hbb + cmv, replicate 2 [3]: 1650 cells; RFP positive cells of 7000 sorted, Ai14 mouse ES reporter cells, promoter hbb + cmv, replicate 3 [3]: 1700 cells; RFP positive cells of 7000 sorted, Ai14 mouse ES reporter cells, promoter hbb + sp1, replicate 1 [3]: 1500 cells; RFP positive cells of 7000 sorted, Ai14 mouse ES reporter cells, promoter hbb + sp1, replicate 2 [3]: 1530 cells; RFP positive cells of 7000 sorted, Ai14 mouse ES reporter cells, promoter hbb + sp1, replicate 3 [3]: 1610 cells; RFP positive cells of 7000 sorted, Ai14 mouse ES reporter cells, promoter hbb, replicate 1 [3]: 256 cells; RFP positive cells of 7000 sorted, Ai14 mouse ES reporter cells, promoter hbb, replicate 2 [3]: 233 cells; RFP positive cells of 7000 sorted, Ai14 mouse ES reporter cells, promoter hbb, replicate 3 [3]: 284 cells; recombinase activity in mouse ES reporter cells, relative to wild type Cre (% of wild type Cre activity) [3]: 40; RFP positive cells of 7000 sorted, Ai14 mouse ES reporter cells, promoter hbb + cmv, replicate 1 [4]: 1 cells; RFP positive cells of 7000 sorted, Ai14 mouse ES reporter cells, promoter hbb + cmv, replicate 2 [4]: 2 cells; RFP positive cells of 7000 sorted, Ai14 mouse ES reporter cells, promoter hbb + cmv, replicate 3 [4]: 1 cells; RFP positive cells of 7000 sorted, Ai14 mouse ES reporter cells, promoter hbb + sp1, replicate 1 [4]: 1 cells; RFP positive cells of 7000 sorted, Ai14 mouse ES reporter cells, promoter hbb + sp1, replicate 2 [4]: 1 cells; RFP positive cells of 7000 sorted, Ai14 mouse ES reporter cells, promoter hbb + sp1, replicate 3 [4]: 2 cells; RFP positive cells of 7000 sorted, Ai14 mouse ES reporter cells, promoter hbb, replicate 1 [4]: 0 cells; RFP positive cells of 7000 sorted, Ai14 mouse ES reporter cells, promoter hbb, replicate 2 [4]: 1 cells; RFP positive cells of 7000 sorted, Ai14 mouse ES reporter cells, promoter hbb, replicate 3 [4]: 0 cells; recombinase activity in vitro (loxP excision, gel): This mutation successfully disrupted formation of Cre-A2 homotetramers; recombinase activity in vitro on six loxP/M7 hybrid substrates (gel) (Cre-B2-C2#4): In vitro assays confirmed that the heterotetrameric Cre is more specific in recombining different arrangement of loxP/M7 sites; recombinase activity in vitro (loxP excision, gel) (Cre-B2): preserving activity in the Cre-A3+Cre-B2 heterotetramer

B2: Cre-A2 (protein)
chain: B1 chain with L123E
Q: Which RFP positive cells of 7000 sorted, Ai14 mouse ES reporter cells, promoter hbb + cmv, replicate 1 [3] does the source give for B2 here?
A: 3180 cells

Q: And the RFP positive cells of 7000 sorted, Ai14 mouse ES reporter cells, promoter hbb + cmv, replicate 2 [3]?
A: 3410 cells

Q: And the RFP positive cells of 7000 sorted, Ai14 mouse ES reporter cells, promoter hbb + cmv, replicate 3 [3]?
A: 3700 cells

Q: And the RFP positive cells of 7000 sorted, Ai14 mouse ES reporter cells, promoter hbb + sp1, replicate 1 [3]?
A: 3220 cells

Q: What about the RFP positive cells of 7000 sorted, Ai14 mouse ES reporter cells, promoter hbb + sp1, replicate 2 [3] of the same molecule?
A: 3340 cells

Q: And the RFP positive cells of 7000 sorted, Ai14 mouse ES reporter cells, promoter hbb + sp1, replicate 3 [3]?
A: 3590 cells

Q: What about the RFP positive cells of 7000 sorted, Ai14 mouse ES reporter cells, promoter hbb, replicate 1 [3] of the same molecule?
A: 573 cells

Q: And the RFP positive cells of 7000 sorted, Ai14 mouse ES reporter cells, promoter hbb, replicate 2 [3]?
A: 528 cells

Q: What about the RFP positive cells of 7000 sorted, Ai14 mouse ES reporter cells, promoter hbb, replicate 3 [3] of the same molecule?
A: 607 cells

Q: And the RFP positive cells of 7000 sorted, Ai14 mouse ES reporter cells, promoter hbb + cmv, replicate 1 [5]?
A: 1130 cells

Q: And the RFP positive cells of 7000 sorted, Ai14 mouse ES reporter cells, promoter hbb + cmv, replicate 2 [5]?
A: 1120 cells

Q: And the RFP positive cells of 7000 sorted, Ai14 mouse ES reporter cells, promoter hbb + cmv, replicate 3 [5]?
A: 1050 cells

Q: What about the RFP positive cells of 7000 sorted, Ai14 mouse ES reporter cells, promoter hbb + sp1, replicate 1 [5] of the same molecule?
A: 1050 cells

Q: What about the RFP positive cells of 7000 sorted, Ai14 mouse ES reporter cells, promoter hbb + sp1, replicate 2 [5] of the same molecule?
A: 1000 cells

Q: What about the RFP positive cells of 7000 sorted, Ai14 mouse ES reporter cells, promoter hbb + sp1, replicate 3 [5] of the same molecule?
A: 1120 cells

Q: What about the RFP positive cells of 7000 sorted, Ai14 mouse ES reporter cells, promoter hbb, replicate 1 [5] of the same molecule?
A: 47 cells

Q: What about the RFP positive cells of 7000 sorted, Ai14 mouse ES reporter cells, promoter hbb, replicate 2 [5] of the same molecule?
A: 52 cells

Q: What about the RFP positive cells of 7000 sorted, Ai14 mouse ES reporter cells, promoter hbb, replicate 3 [5] of the same molecule?
A: 41 cells

Q: What about the “recombinase activity in vitro (loxP excision, gel)” value of the same molecule?
A: while its activity is reduced relative to Cre-A1, the Cre-A2 monomer was still capable of forming a functional homotetrameric complex

Q: What about the “recombinase activity in vitro (loxP excision, gel)” value (Cre-B2) of the same molecule?
A: the Cre-A2+Cre-B2 combination exhibited strong recombinase activity

B3: Cre-B1 (protein)
chain: T1 chain with R308E
Q: With B3 as the molecule, how does the RFP positive cells of 7000 sorted, Ai14 mouse ES reporter cells, promoter hbb + cmv, replicate 1 [6] read?
A: 1240 cells

Q: What about the RFP positive cells of 7000 sorted, Ai14 mouse ES reporter cells, promoter hbb + cmv, replicate 2 [6] of the same molecule?
A: 1260 cells

Q: And the RFP positive cells of 7000 sorted, Ai14 mouse ES reporter cells, promoter hbb + cmv, replicate 3 [6]?
A: 1120 cells

Q: What about the RFP positive cells of 7000 sorted, Ai14 mouse ES reporter cells, promoter hbb + sp1, replicate 1 [6] of the same molecule?
A: 1150 cells

Q: What about the RFP positive cells of 7000 sorted, Ai14 mouse ES reporter cells, promoter hbb + sp1, replicate 2 [6] of the same molecule?
A: 1080 cells

Q: What about the RFP positive cells of 7000 sorted, Ai14 mouse ES reporter cells, promoter hbb + sp1, replicate 3 [6] of the same molecule?
A: 1200 cells

Q: What about the RFP positive cells of 7000 sorted, Ai14 mouse ES reporter cells, promoter hbb, replicate 1 [6] of the same molecule?
A: 97 cells

Q: And the RFP positive cells of 7000 sorted, Ai14 mouse ES reporter cells, promoter hbb, replicate 2 [6]?
A: 102 cells

Q: And the RFP positive cells of 7000 sorted, Ai14 mouse ES reporter cells, promoter hbb, replicate 3 [6]?
A: 85 cells

Q: And the “recombinase activity in vitro (loxP excision, gel)” value?
A: All Cre-B mutants are inactive in isolation.

B4: Cre mutant with only the round 2 mutation E308R (protein)
chain: T1 chain with D69E, K72R, E76L
Q: For B4, which “recombinase activity in vitro” value is on record?
A: The salt-bridge swap from round 2 alone yields two Cre mutants with reduced but clear activity (data not shown)

B5: Cre-E123L-E308R (protein)
chain: T1 chain with D69E, K72R, E76L, E123L
Q: With B5 as the molecule, how does the “recombinase activity in vitro (loxP excision, gel)” value (Cre-E123LE-R337E) read?
A: In vitro assays indicated that these mutants do not form an obligate heterotetrameric pair

B6: Cre mutant with only the round 2 mutation R337E (protein)
chain: T1 chain with D69E, K72R, E76L, R308E, R337E
Q: For B6, which “recombinase activity in vitro” value is on record?
A: The salt-bridge swap from round 2 alone yields two Cre mutants with reduced but clear activity (data not shown)

B7: Cre-B2 (protein)
chain: T1 chain
Q: With B7 as the molecule, how does the RFP positive cells of 7000 sorted, Ai14 mouse ES reporter cells, promoter hbb + cmv, replicate 1 [3] read?
A: 2 cells

Q: What about the RFP positive cells of 7000 sorted, Ai14 mouse ES reporter cells, promoter hbb + cmv, replicate 2 [3] of the same molecule?
A: 2 cells

Q: And the RFP positive cells of 7000 sorted, Ai14 mouse ES reporter cells, promoter hbb + cmv, replicate 3 [3]?
A: 4 cells

Q: What about the RFP positive cells of 7000 sorted, Ai14 mouse ES reporter cells, promoter hbb + sp1, replicate 1 [3] of the same molecule?
A: 2 cells

Q: And the RFP positive cells of 7000 sorted, Ai14 mouse ES reporter cells, promoter hbb + sp1, replicate 2 [3]?
A: 1 cells

Q: What about the RFP positive cells of 7000 sorted, Ai14 mouse ES reporter cells, promoter hbb + sp1, replicate 3 [3] of the same molecule?
A: 3 cells

Q: And the RFP positive cells of 7000 sorted, Ai14 mouse ES reporter cells, promoter hbb, replicate 1 [3]?
A: 0 cells

Q: And the RFP positive cells of 7000 sorted, Ai14 mouse ES reporter cells, promoter hbb, replicate 2 [3]?
A: 0 cells

Q: And the RFP positive cells of 7000 sorted, Ai14 mouse ES reporter cells, promoter hbb, replicate 3 [3]?
A: 1 cells

Q: What about the “recombinase activity in vitro (loxP excision, gel)” value of the same molecule?
A: All Cre-B mutants are inactive in isolation.
